Experimental data published in article PMC5818060.

Experiments:
[1] = molecular target: His-DDX3X^414-582 (human) (UniProt O00571); assay: fluorescence thermal shift (FTS) assay; FTS with varying concentrations of peptide; melting temperatures fitted to single site or simple cooperative ligand binding, preferred model chosen
[2] = molecular target: His-DDX3X^414-582 (human) (UniProt O00571); assay: fluorescence thermal shift (FTS) assay; 10 µM His-DDX3X^414-582, 20 µM peptide, 50 mM HEPES pH 8, 10x SYPRO-Orange; change of melting temperature

Sequence of His-DDX3X^414-582 (human) (O00571 414-582): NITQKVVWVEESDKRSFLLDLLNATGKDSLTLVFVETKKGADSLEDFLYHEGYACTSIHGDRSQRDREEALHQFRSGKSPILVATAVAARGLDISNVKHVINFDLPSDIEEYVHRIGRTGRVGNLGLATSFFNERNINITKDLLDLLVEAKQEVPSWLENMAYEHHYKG

Kd [1]: 5.49 µM | increase of the melting temperature (Tm) of His-DDX3X^414-582 [2]: 5 °C
Substance: CK1δ-derived peptide δ-41 (from UniProt P48730 41-55)
